Data: patent US20030186868A1 (Regeneron, published 2003)
Read-outs that look alike come from different tables or passages of the source. Bridge positions count the residues as written; N and C are the ends. Ends that are not written are not given here.

Key:
[1] = target: human vascular endothelial growth factor receptor-2 (hVEGFR-2) (human) (UniProt P35968); assay: 125I-VEGF165 competition, whole COS-1 cells
[2] = target: T1, human vascular endothelial growth factor receptor-2 (hVEGFR-2) (human, UniProt P35968 20-1356); assay: cell-based or functional assay
[3] = target: T1, human vascular endothelial growth …; assay: cell-based or functional assay; remark: listed apart in the source
[4] = target: T2, human Neuropilin-1 (hNP-1) (human, UniProt O14786 22-923); assay: 125I-VEGF165 competition, whole COS-1 cells
T2 construct: whole, on cells; also called hNeuropilin-1
Experimental: (§1) Cells are plated the day before experimentation at 200,000 cells per well in twelve well tissue culture plates (VWR) in 1 ml of growth medium specific for each cell type. On the day of experimentation, the cells were pre-equilibrated at 4° C. for 30 to 60 minutes in binding buffer (0.2% BSA, Sigma; 25 mM Hepes, Gibco; MEM, Gibco). […] The binding reaction is allowed to reach equilibrium for four hours at 4° C. with gentle agitation.
(§2) Unbound ligand is then removed by quickly washing three times with 5 ml ice cold BSA-free binding buffer (MEM, Gibco, 25 mM Hepes, Gibco). Cells are lysed by the addition of 250 μl of RIPS Buffer (previously described), and the lysed cells are transferred to 12×75 mm test tubes and counted using a gamma counter. Generation of competition curves and IC₅₀ values are performed using the Prism software package (Graphpad Software Inc., San Diego, Calif.).

[5] = target: T1, human vascular endothelial growth …; assay: 125I-VEGF165 (287 pM) competition by cold ligand, COS-1 cells overexpressing VEGFR-2
Experimental: The cells were then rinsed three times with ice cold binding buffer to remove unbound ligand, lysed, and transferred to 12×75 mm test tubes for counting on a gamma counter. The IC₅₀ values were calculated by fitting the data to a four parameter logistic equation (Prism software).

[6] = target: T2, human Neuropilin-1 (hNP-1); assay: 125I-VEGF165 competition, whole COS-1 cells; remark: listed apart in the source
[7] = target: T3, VEGFR-2/NP-1 co-receptor complex (cells co-expressing hVEGFR-2 and hNP-1) (human, UniProt P35968 20-1356; O14786 22-923); assay: 125I-VEGF165 competition, whole COS-1 cells
T3 construct: whole, on cells; All numbers printed for cells co-expressing both receptors are put on this molecule; also called R2 + NP1 Cells; VEGFR-2/NP-1 complex

[8] = target: T1, human vascular endothelial growth …; assay: 125I-VEGF165 competition, whole COS-1 cells
Experimental: as §1, §2

[9] = target: T2, human Neuropilin-1 (hNP-1); assay: 125I-VEGF165 competition by cold VEGF165, whole COS-1 cells
Experimental: as §1, §2

[10] = target: T2, human Neuropilin-1 (hNP-1); assay: saturation binding of 125I-VEGF165, whole COS-1 cells (transient)
Experimental: as §1, §2

[11] = target: T2, human Neuropilin-1 (hNP-1); assay: 125I-VEGF165 competition, stable Balb/C 3T3 A31 cells
[12] = target: VEGFR-2/NP-1 co-receptor complex (cells co-expressing hVEGFR-2 and hNP-1) (human) (UniProt P35968); assay: 125I-VEGF165 competition, whole COS-1 cells
[13] = target: human Neuropilin-1 (hNP-1) (human) (UniProt O14786); assay: 125I-VEGF165 competition, whole COS-1 cells
[14] = target: T3, VEGFR-2/NP-1 co-receptor complex (cells …); assay: 125I-VEGF165 (201 pM) competition, cells overexpressing VEGFR-2 and NP-1 (FIG. 7)
Experimental: as §1, §2

[15] = target: T3, VEGFR-2/NP-1 co-receptor complex (cells …); assay: 125I-VEGF165 competition, stable Balb/C 3T3 A31 cells
[16] = target: VEGFR-2/NP-1 co-receptor complex (cells co-expressing hVEGFR-2 and hNP-1) (human) (UniProt P35968); assay: 125I-VEGF165 competition, whole COS-1 cells; remark: listed apart in the source

T2 sequence (O14786 22-923): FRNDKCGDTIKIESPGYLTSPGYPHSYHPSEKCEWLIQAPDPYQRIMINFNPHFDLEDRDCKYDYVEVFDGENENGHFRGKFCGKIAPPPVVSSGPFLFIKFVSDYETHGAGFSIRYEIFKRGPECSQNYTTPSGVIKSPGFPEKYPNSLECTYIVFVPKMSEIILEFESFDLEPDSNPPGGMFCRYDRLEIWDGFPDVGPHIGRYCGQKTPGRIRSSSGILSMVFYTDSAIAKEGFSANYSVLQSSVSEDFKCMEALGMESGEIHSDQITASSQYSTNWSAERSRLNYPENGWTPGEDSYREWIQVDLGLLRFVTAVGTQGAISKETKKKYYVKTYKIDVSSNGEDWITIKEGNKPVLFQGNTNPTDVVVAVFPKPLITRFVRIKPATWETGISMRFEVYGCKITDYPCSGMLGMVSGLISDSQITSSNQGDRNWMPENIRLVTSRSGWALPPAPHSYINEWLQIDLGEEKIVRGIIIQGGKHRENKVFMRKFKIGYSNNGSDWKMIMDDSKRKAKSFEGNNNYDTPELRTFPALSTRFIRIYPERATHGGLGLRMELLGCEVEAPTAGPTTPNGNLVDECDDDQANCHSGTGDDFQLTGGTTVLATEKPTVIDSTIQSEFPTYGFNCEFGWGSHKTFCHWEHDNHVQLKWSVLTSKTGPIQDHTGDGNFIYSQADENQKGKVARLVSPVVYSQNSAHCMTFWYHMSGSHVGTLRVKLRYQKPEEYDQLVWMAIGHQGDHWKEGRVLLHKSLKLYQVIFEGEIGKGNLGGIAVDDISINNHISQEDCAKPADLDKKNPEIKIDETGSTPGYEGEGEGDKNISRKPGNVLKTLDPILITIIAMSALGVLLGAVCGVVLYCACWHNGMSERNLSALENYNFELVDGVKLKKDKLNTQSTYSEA
T1 sequence (P35968 20-1356): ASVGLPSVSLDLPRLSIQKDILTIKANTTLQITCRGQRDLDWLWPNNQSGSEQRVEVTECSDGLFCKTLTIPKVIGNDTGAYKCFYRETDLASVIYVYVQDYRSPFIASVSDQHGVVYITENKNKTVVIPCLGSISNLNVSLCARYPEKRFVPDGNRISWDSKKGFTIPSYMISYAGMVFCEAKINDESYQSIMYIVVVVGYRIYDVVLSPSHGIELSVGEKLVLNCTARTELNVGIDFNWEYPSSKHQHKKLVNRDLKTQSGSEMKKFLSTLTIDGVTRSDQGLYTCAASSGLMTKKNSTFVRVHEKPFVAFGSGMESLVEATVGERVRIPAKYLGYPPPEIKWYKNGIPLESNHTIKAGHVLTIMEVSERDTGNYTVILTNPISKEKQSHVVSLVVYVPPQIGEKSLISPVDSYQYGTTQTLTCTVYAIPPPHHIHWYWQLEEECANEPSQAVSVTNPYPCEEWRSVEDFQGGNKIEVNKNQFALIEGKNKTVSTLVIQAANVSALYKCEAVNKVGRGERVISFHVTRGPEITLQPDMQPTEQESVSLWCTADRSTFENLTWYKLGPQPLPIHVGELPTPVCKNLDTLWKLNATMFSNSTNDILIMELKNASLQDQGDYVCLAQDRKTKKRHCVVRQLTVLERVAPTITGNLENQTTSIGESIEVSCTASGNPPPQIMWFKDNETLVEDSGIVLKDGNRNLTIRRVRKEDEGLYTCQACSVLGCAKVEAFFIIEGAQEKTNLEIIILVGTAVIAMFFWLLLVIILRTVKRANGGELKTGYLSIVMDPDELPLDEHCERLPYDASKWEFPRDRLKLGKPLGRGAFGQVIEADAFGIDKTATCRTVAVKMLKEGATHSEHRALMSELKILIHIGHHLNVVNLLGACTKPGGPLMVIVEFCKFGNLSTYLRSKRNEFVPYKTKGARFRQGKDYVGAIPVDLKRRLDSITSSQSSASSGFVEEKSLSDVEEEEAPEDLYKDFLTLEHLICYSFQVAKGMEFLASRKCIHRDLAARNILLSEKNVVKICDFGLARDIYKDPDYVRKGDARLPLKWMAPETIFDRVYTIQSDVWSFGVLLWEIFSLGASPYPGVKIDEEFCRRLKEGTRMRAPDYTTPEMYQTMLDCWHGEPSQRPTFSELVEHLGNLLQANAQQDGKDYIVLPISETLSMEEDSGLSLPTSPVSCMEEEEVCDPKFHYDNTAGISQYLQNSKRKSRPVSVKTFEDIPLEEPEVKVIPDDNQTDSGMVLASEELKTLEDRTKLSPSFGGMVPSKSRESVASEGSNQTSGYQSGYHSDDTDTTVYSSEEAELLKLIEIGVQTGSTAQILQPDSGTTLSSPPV
Sequence of human vascular endothelial growth factor receptor-2 (hVEGFR-2) (human) (P35968 20-1356): as above
T3 sequence (P35968 20-1356, chain 1 of 2): as the sequence (P35968 20-1356) above
T3 sequence (O14786 22-923, chain 2 of 2): as the sequence (O14786 22-923) above
Sequence of VEGFR-2/NP-1 co-receptor complex (cells co-expressing hVEGFR-2 and hNP-1) (human) (P35968 20-1356, chain 1 of 2): as the sequence (P35968 20-1356) above
Sequence of VEGFR-2/NP-1 co-receptor complex (cells co-expressing hVEGFR-2 and hNP-1) (human) (O14786 22-923, chain 2 of 2, further chain): as the sequence (O14786 22-923) above
Sequence of human Neuropilin-1 (hNP-1) (human) (O14786 22-923): as above

RRPKGRGKRRREKQRAAAKPRR [AS-4a]
relative affinity to lead peptide (IC50 peptide / IC50 P6V8CS) [1]: 1.9

KGRGKRAAEAQRPSDKPRR [P6V8-3NCSA7, 8, 10]
relative affinity (IC50 peptide / IC50 VEGF165) [1]: 110000

B1: VEGF121 (ligand, UniProt P15692-9 27-147, looked up)
chain: APMAEGGGQNHHEVVKFMDVYQRSYCHPIETLVDIFQEYPDEIEYIFKPSCVPLMRCGGCCNDEGLECVPTEESNITMQIMRIKPHQGQHIGEMSFLQHNKCECRPKKDRARQEKCDKPRR
EC50 of VEGF121 for VEGFR-2 phosphorylation in HUVEC in the presence of 100 µM P6 (FIG. 8) [2]: 2.38 nM | EC50 of VEGF121 for VEGFR-2 phosphorylation in HUVEC in the presence of 100 µM P6V8 (FIG. 8) [2]: 4.04 nM | EC50 of VEGF121 for VEGFR-2 phosphorylation in HUVEC with antagonist P6V8-3NCSC13C18 (FIG. 12) [2]: 2.08 nM | EC50 of VEGF121 for VEGFR-2 phosphorylation in HUVEC, no peptide (FIG. 8) [2]: 1.84 nM | EC50 of VEGF121 for VEGFR-2 phosphorylation in HUVEC, no peptide (FIG. 12) [2]: 2.75 nM | EC50 of VEGF121 for VEGFR-2 phosphorylation in HUVEC, no peptide (FIG. 13) [2]: 3.38 nM | EC50 of VEGF121, VEGFR-2 anti-phosphotyrosine assay in HUVEC, no peptide added [3]: 2.45 nM | EC50 of VEGF121, VEGFR-2 anti-phosphotyrosine assay in HUVEC, with 100 µM P6 [3]: 2.4 nM | EC50 of VEGF121, VEGFR-2 anti-phosphotyrosine assay in HUVEC, with 100 µM P6V8 [3]: 4.07 nM | EC50 of VEGF121, VEGFR-2 anti-phosphotyrosine assay in HUVEC, with 100 µM P6V8-3N [3]: 1.17 nM | EC50 of VEGF121, VEGFR-2 anti-phosphotyrosine assay in HUVEC, with 100 µM P6V8-3N (second row with this label) [3]: 1.62 nM | EC50 of VEGF121, VEGFR-2 anti-phosphotyrosine assay in HUVEC, with 100 µM P6V8-3NCS [3]: 4.57 nM | EC50 of VEGF121, VEGFR-2 anti-phosphotyrosine assay in HUVEC, with 100 µM P6V8-3NCS1-7CC [3]: 3.31 nM | EC50 of VEGF121, VEGFR-2 anti-phosphotyrosine assay in HUVEC, with 100 µM P6V8-3NCSA7, 8, 10, 12 [3]: 17.8 nM | EC50 of VEGF121, VEGFR-2 anti-phosphotyrosine assay in HUVEC, with 100 µM P6V8-3NCSC13C18 [3]: 2.09 nM | Log EC50 of VEGF121, VEGFR-2 anti-phosphotyrosine assay in HUVEC, no peptide added [3]: -8.61 | Log EC50 of VEGF121, VEGFR-2 anti-phosphotyrosine assay in HUVEC, with 100 µM P6 [3]: -8.62 | Log EC50 of VEGF121, VEGFR-2 anti-phosphotyrosine assay in HUVEC, with 100 µM P6V8 [3]: -8.39 | Log EC50 of VEGF121, VEGFR-2 anti-phosphotyrosine assay in HUVEC, with 100 µM P6V8-3N [3]: -8.93 | Log EC50 of VEGF121, VEGFR-2 anti-phosphotyrosine assay in HUVEC, with 100 µM P6V8-3N (second row with this label) [3]: -8.79 | Log EC50 of VEGF121, VEGFR-2 anti-phosphotyrosine assay in HUVEC, with 100 µM P6V8-3NCS [3]: -8.34 | Log EC50 of VEGF121, VEGFR-2 anti-phosphotyrosine assay in HUVEC, with 100 µM P6V8-3NCS1-7CC [3]: -8.48 | Log EC50 of VEGF121, VEGFR-2 anti-phosphotyrosine assay in HUVEC, with 100 µM P6V8-3NCSA7, 8, 10, 12 [3]: -7.75 | Log EC50 of VEGF121, VEGFR-2 anti-phosphotyrosine assay in HUVEC, with 100 µM P6V8-3NCSC13C18 [3]: -8.68 | binding result [4]: no binding | IC50 [5]: 0.312 nM

KGRGKRRRECQRPSCKPRR (disulfide 10-15) [P6V8-3NCSC13C18]
binding result [6]: binds | binding result [7]: binds | binding result [8]: no binding

AGRGARAAEKQAPSDKPRR [P6V8-3NCSA1, 5, 7, 8, 12]
binding result [8]: no binding

B2: human recombinant VEGF165 (ligand, UniProt P15692-4 27-191, looked up)
chain: APMAEGGGQNHHEVVKFMDVYQRSYCHPIETLVDIFQEYPDEIEYIFKPSCVPLMRCGGCCNDEGLECVPTEESNITMQIMRIKPHQGQHIGEMSFLQHNKCECRPKKDRARQENPCGPCSERRKHLFVQDPQTCKCSCKNTDSRCKARQLELNERTCRCDKPRR
modifications: 125I-labelled (chloramine T) where used as tracer
IC50 [9]: 0.582 nM | log IC50 [9]: -9.24 | Kd [10]: 2.09 nM | Log Kd [10]: -8.68

KGRGKRRREKQRPCDKPRR [P6V8-3N]
IC50 [11]: 254 nM

AGRGKARREKQRPSDKPRR [P6V8-3NCSA1A6]
binding result [8]: no binding

AGRGARRREKQRPSDKPRR [P6V8-3NCSA1A5]
binding result [8]: no binding

KGAGKARREKQRPSDKPRR [P6V8-3NCSA3A6]
binding result [8]: no binding

KGAGARRREKQRPSDKPRR [P6V8-3NCSA3A5]
binding result [8]: no binding

B3: (cap)P6V8-3NCS (peptide)
peptide: KGRGKRRREKQRPSDKPRR
modifications: not fully specified (N-terminus, C-terminus); also: amino and carboxyl termini capped, caps not given here
relative affinity (IC50 peptide / IC50 VEGF165) [12]: 96200 | binding result [8]: no binding

CAGRGKRCREKQRPSDKPRR (disulfide 1-8, also called P6V8-3NCSA-1 7CCA1) [P6V8-3NCS1-7CCA1]
binding result [8]: no binding

CKGRGKRCREKQRPSDKPRR (disulfide 1-8; also: capped amino and carboxyl termini, caps not given here) [(cap)P6V8-3NCS1-7CC]
binding result [6]: no binding | binding result [7]: no binding | binding result [8]: no binding

CKGRGARCREKQRPSDKPRR (disulfide 1-8) [P6V8-3NCS1-7CCA5]
binding result [8]: no binding

CAGRGARCREKQRPSDKPRR (disulfide 1-8) [P6V8-3NCS1-7CCA1A5]
binding result [8]: no binding

AGRGARAAEAQRPSDKPRR [P6V8-3NCSA1, 5, 7, 8, 10]
relative affinity to lead peptide (IC50 peptide / IC50 P6V8-3NCS) [13]: 67.8 | relative affinity (IC50 peptide / IC50 VEGF165) [1]: 212000

RRPAAAGKRRREKQRPSDKPRR [AS-1]
binding result [8]: no binding

RPCDKPRR [V8]
binding result [8]: no binding | binding result [4]: no binding

RPSDKPRR [V8CS]
binding result [8]: no binding

RRPKGRGKRRREKQRPDAVPRR (also called P6P7 peptide) [P6P7]
IC50 [14]: 1170 nM

B4: P6V8 (peptide)
peptide: RRPKGRGKRRREKQRPCDKPRR
notes: synthetic; holds one free cysteine; also called P6V8 parent peptide
binding result [6]: binds

KGRGKRAAEAQAPSDKPRR [P6V8-3NCSA7, 8, 10, 12]
binding result [8]: no binding

RRPKGRGKRRREAAAPSDKPRR (also called NP-1 selective peptide) [AS-4]
binding result [8]: no binding | IC50 [11]: 17.8 nM | IC50 [15]: 300 nM

CKGRGKRCREKQRPSDKPRR (disulfide 1-8, also called P6V8-3NCW1-7CC) [P6V8-3NCS1-7CC]
binding result [8]: no binding

KGRGKRAAEKQAPSDKPRR [P6V8-3NCSA7, 8, 12]
relative affinity (IC50 peptide / IC50 VEGF165) [16]: 36600 | relative affinity (IC50 peptide / IC50 VEGF165) [1]: 6000

RRPKGRGKRRREKQRP (also called P6 peptide; pp6) [P6]
IC50 [14]: 12200 nM
